# Measured values reported in paper PMC3050645.
# B1: Chlorite dismutase (Cld) (Dechloromonas aromatica RCB) (protein)
# chain: MQPMQSMKIERGTILTQPGVFGVFTMFKLRPDWNKVPVAERKGAAEEVKKLIEKHKDNVLVDLYLTRGLETNSDFFFRINAYDLAKAQTFMREFRSTTVGKNADVFETLVGVTKPLNYISKDKSPGLNAGLSSATYSGPAPRYVIVIPVKKNAEWWNMSPEERLKEMEVHTTPTLAYLVNVKRKLYHSTGLDDTDFITYFETDDLTAFNNLMLSLAQVKENKFHVRWGSPTTLGTIHSPEDVIKALAD
# Substrate: [O-][Cl+]O
# Test: Clark-type O2 electrode, initial rates
# Assay type: biochemical, Dechloromonas aromatica (nom. nud.)
# Conditions: pH 5.2, 4 °C, 100 mM citrate-phosphate
protein,measurement,value
B1,Km,620 ± 70 µM
same,kcat,20000 ± 6000 s⁻¹
same,kcat/Km,3.2e+07 ± 4e+06 M⁻¹ s⁻¹
